From doi:10.1101/2023.12.01.569227 (bioRxiv, 2023)
Residue numbers refer to the chain shown, from its start.

B1: VHH-72 (VHH)
VHH: QVQLQESGGGLVQAGGSLRLSCAASGRTFSEYAMGWFRQAPGKEREFVATISWSGGSTYYTDSVKGRFTISRDNAKNTVYLQMNSLKPDDTAVYYCAAAGLGTVVSEWDYDYDYWGQGTQVTVSS
B2: Seq4 (VHH)
VHH: B1 VHH with T28S, G56R, S57A, A98R, L101Y, T103V
B3: Seq6 (VHH)
VHH: B1 VHH with T28L, G56R, A98K, L101W, T103V
B4: Seq7 (VHH)
VHH: B1 VHH with R27L, T28K, Y32T, G56R, A98R, L101Y, T103V
B5: Seq3 (VHH)
VHH: B1 VHH with T28M, Y32T, G56R, S57G, A98G, L101Y, T103V, V104Y
B6: Seq8 (VHH)
VHH: B1 VHH with R27Y, T28G, G56R, A98R, L101W, T103V
B7: Seq5 (VHH)
VHH: B1 VHH with T28M, G56K, S57G, A98R, L101F, T103V, V104Y
B8: Seq11 (VHH)
VHH: B1 VHH with T28K, G56R, S57L, A98G, L101Y, T103V
B9: Seq2 (VHH)
VHH: B1 VHH with T28G, S57G, A98R, L101F, T103V, V104W
B10: Seq1 (VHH)
VHH: B1 VHH with Y32T, G56R, S57G, A98Y, L101Y, T103V

Target: SARS-CoV-1 RBD (SARS-CoV-1 (SARS-CoV), Urbani, UniProt P59594, biotinylated with an EZ-Link NHS-PEG4 biotinylation kit)
Test: BLI

Binder	binding result
B1	binds
B2	binds
B3	binds
B4	binds
B5	binds
B6	binds
B7	binds
B8	binds
B9	binds
B10	binds

Target: SARS-CoV-2 RBD (SARS-CoV-2, Wuhan-Hu-1, UniProt P0DTC2, biotinylated with an EZ-Link NHS-PEG4 biotinylation kit)
Test: BLI

Binder	fold weaker binding than to SARS-CoV-1 RBD
B1	> 5 fold
